The results in this text go back to patent publication US8673848 (Novartis, dated 2014).

Bridges are numbered along the chain shown (N, C = ends). [ ]: non-standard residue; d: D form. Bip = N[C@@H](Cc1ccc(-c2ccccc2)cc1)C(=O)O; 3Pal = N[C@@H](Cc1cccnc1)C(=O)O; pGlu = O=C1CC[C@@H](C(=O)O)N1; d(hCys) = N[C@H](CCS)C(=O)O; hCys = N[C@@H](CCS)C(=O)O; Nle = CCCC[C@H](N)C(=O)O; Dab = NCC[C@H](N)C(=O)O

To fix the notation:
T1: human APJ receptor (hAPJ) (human, UniProt P35414 1-380)
T1 sequence (looked up): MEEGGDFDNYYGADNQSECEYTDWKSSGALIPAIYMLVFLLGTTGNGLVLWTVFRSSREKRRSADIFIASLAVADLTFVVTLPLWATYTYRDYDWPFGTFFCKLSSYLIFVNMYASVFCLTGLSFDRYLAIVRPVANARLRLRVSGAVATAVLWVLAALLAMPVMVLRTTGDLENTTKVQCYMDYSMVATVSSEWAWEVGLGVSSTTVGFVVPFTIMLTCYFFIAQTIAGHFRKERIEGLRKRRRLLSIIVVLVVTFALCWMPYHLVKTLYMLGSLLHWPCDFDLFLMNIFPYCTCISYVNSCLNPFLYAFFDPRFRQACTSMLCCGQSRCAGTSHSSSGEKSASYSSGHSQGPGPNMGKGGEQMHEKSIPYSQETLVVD

B1: Example 51: pE-R-P-R-L-C-H-K-G-P-Nle-hC-F-OH (peptide)
peptide: [pGlu]RPRLCHKGP[Nle][hCys]F-OH
modifications: disulfide 6-12
SMILES: CCCC[C@@H]1NC(=O)[C@@H]2CCCN2C(=O)CNC(=O)[C@H](CCCCN)NC(=O)[C@H](Cc2c[nH]cn2)NC(=O)[C@@H](NC(=O)[C@H](CC(C)C)NC(=O)[C@H](CCCNC(=N)N)NC(=O)[C@@H]2CCCN2C(=O)[C@H](CCCNC(=N)N)NC(=O)[C@@H]2CCC(=O)N2)CSSCC[C@@H](C(=O)N[C@@H](Cc2ccccc2)C(=O)O)NC1=O
B2: Example 47: pE-R-P-R-L-C-H-K-G-P-(3-PyA)-C-F-OH (peptide)
peptide: [pGlu]RPRLCHKGP[3Pal]CF-OH
modifications: disulfide 6-12
SMILES: CC(C)C[C@H](NC(=O)[C@H](CCCNC(=N)N)NC(=O)[C@@H]1CCCN1C(=O)[C@H](CCCNC(=N)N)NC(=O)[C@@H]1CCC(=O)N1)C(=O)N[C@H]1CSSC[C@@H](C(=O)N[C@@H](Cc2ccccc2)C(=O)O)NC(=O)[C@H](Cc2cccnc2)NC(=O)[C@@H]2CCCN2C(=O)CNC(=O)[C@H](CCCCN)NC(=O)[C@H](Cc2c[nH]cn2)NC1=O
B3: Example 49: pE-R-P-R-L-C-H-K-G-P-Nle-C-E-OH (peptide)
peptide: [pGlu]RPRLCHKGP[Nle]CE-OH
modifications: disulfide 6-12
SMILES: CCCC[C@@H]1NC(=O)[C@@H]2CCCN2C(=O)CNC(=O)[C@H](CCCCN)NC(=O)[C@H](Cc2c[nH]cn2)NC(=O)[C@@H](NC(=O)[C@H](CC(C)C)NC(=O)[C@H](CCCNC(=N)N)NC(=O)[C@@H]2CCCN2C(=O)[C@H](CCCNC(=N)N)NC(=O)[C@@H]2CCC(=O)N2)CSSC[C@@H](C(=O)N[C@@H](CCC(=O)O)C(=O)O)NC1=O
B4: Example 45: pE-R-P-R-L-C-H-K-R-P-Nle-C-F-OH (peptide)
peptide: [pGlu]RPRLCHKRP[Nle]CF-OH
modifications: disulfide 6-12
SMILES: CCCC[C@@H]1NC(=O)[C@@H]2CCCN2C(=O)[C@H](CCCNC(=N)N)NC(=O)[C@H](CCCCN)NC(=O)[C@H](Cc2c[nH]cn2)NC(=O)[C@@H](NC(=O)[C@H](CC(C)C)NC(=O)[C@H](CCCNC(=N)N)NC(=O)[C@@H]2CCCN2C(=O)[C@H](CCCNC(=N)N)NC(=O)[C@@H]2CCC(=O)N2)CSSC[C@@H](C(=O)N[C@@H](Cc2ccccc2)C(=O)O)NC1=O
B5: Example 40: pE-R-P-E-L-C-H-K-G-P-Nle-C-F-OH (peptide)
peptide: [pGlu]RPELCHKGP[Nle]CF-OH
modifications: disulfide 6-12
SMILES: CCCC[C@@H]1NC(=O)[C@@H]2CCCN2C(=O)CNC(=O)[C@H](CCCCN)NC(=O)[C@H](Cc2c[nH]cn2)NC(=O)[C@@H](NC(=O)[C@H](CC(C)C)NC(=O)[C@H](CCC(=O)O)NC(=O)[C@@H]2CCCN2C(=O)[C@H](CCCNC(=N)N)NC(=O)[C@@H]2CCC(=O)N2)CSSC[C@@H](C(=O)N[C@@H](Cc2ccccc2)C(=O)O)NC1=O
B6: Example 44: pE-R-P-R-L-C-H-K-L-P-Nle-C-F-OH (peptide)
peptide: [pGlu]RPRLCHKLP[Nle]CF-OH
modifications: disulfide 6-12
SMILES: CCCC[C@@H]1NC(=O)[C@@H]2CCCN2C(=O)[C@H](CC(C)C)NC(=O)[C@H](CCCCN)NC(=O)[C@H](Cc2c[nH]cn2)NC(=O)[C@@H](NC(=O)[C@H](CC(C)C)NC(=O)[C@H](CCCNC(=N)N)NC(=O)[C@@H]2CCCN2C(=O)[C@H](CCCNC(=N)N)NC(=O)[C@@H]2CCC(=O)N2)CSSC[C@@H](C(=O)N[C@@H](Cc2ccccc2)C(=O)O)NC1=O
B7: Example 50: pE-R-P-R-L-C-H-K-G-P-Nle-C-OH (peptide)
peptide: [pGlu]RPRLCHKGP[Nle]C-OH
modifications: disulfide 6-12
SMILES: CCCC[C@@H]1NC(=O)[C@@H]2CCCN2C(=O)CNC(=O)[C@H](CCCCN)NC(=O)[C@H](Cc2c[nH]cn2)NC(=O)[C@@H](NC(=O)[C@H](CC(C)C)NC(=O)[C@H](CCCNC(=N)N)NC(=O)[C@@H]2CCCN2C(=O)[C@H](CCCNC(=N)N)NC(=O)[C@@H]2CCC(=O)N2)CSSC[C@@H](C(=O)O)NC1=O
B8: Example 48: pE-R-P-R-L-C-H-K-G-P-Nle-C-H-OH (peptide)
peptide: [pGlu]RPRLCHKGP[Nle]CH-OH
modifications: disulfide 6-12
SMILES: CCCC[C@@H]1NC(=O)[C@@H]2CCCN2C(=O)CNC(=O)[C@H](CCCCN)NC(=O)[C@H](Cc2c[nH]cn2)NC(=O)[C@@H](NC(=O)[C@H](CC(C)C)NC(=O)[C@H](CCCNC(=N)N)NC(=O)[C@@H]2CCCN2C(=O)[C@H](CCCNC(=N)N)NC(=O)[C@@H]2CCC(=O)N2)CSSC[C@@H](C(=O)N[C@@H](Cc2c[nH]cn2)C(=O)O)NC1=O
B9: Example 54: pE-R-P-R-L-C-H-K-G-P-Nle-(D-hC)-F-OH (peptide)
peptide: [pGlu]RPRLCHKGP[Nle][d(hCys)]F-OH
modifications: disulfide 6-12
SMILES: CCCC[C@@H]1NC(=O)[C@@H]2CCCN2C(=O)CNC(=O)[C@H](CCCCN)NC(=O)[C@H](Cc2c[nH]cn2)NC(=O)[C@@H](NC(=O)[C@H](CC(C)C)NC(=O)[C@H](CCCNC(=N)N)NC(=O)[C@@H]2CCCN2C(=O)[C@H](CCCNC(=N)N)NC(=O)[C@@H]2CCC(=O)N2)CSSCC[C@H](C(=O)N[C@@H](Cc2ccccc2)C(=O)O)NC1=O
B10: Example 42: pE-R-P-R-D-C-H-K-G-P-Nle-C-F-OH (peptide)
peptide: [pGlu]RPRDCHKGP[Nle]CF-OH
modifications: disulfide 6-12
SMILES: CCCC[C@@H]1NC(=O)[C@@H]2CCCN2C(=O)CNC(=O)[C@H](CCCCN)NC(=O)[C@H](Cc2c[nH]cn2)NC(=O)[C@@H](NC(=O)[C@H](CC(=O)O)NC(=O)[C@H](CCCNC(=N)N)NC(=O)[C@@H]2CCCN2C(=O)[C@H](CCCNC(=N)N)NC(=O)[C@@H]2CCC(=O)N2)CSSC[C@@H](C(=O)N[C@@H](Cc2ccccc2)C(=O)O)NC1=O
B11: Example 53: pE-R-P-R-L-c-H-K-G-P-Nle-C-F-OH (peptide)
peptide: [pGlu]RPRL[dC]HKGP[Nle]CF-OH
modifications: disulfide 6-12
SMILES: CCCC[C@@H]1NC(=O)[C@@H]2CCCN2C(=O)CNC(=O)[C@H](CCCCN)NC(=O)[C@H](Cc2c[nH]cn2)NC(=O)[C@H](NC(=O)[C@H](CC(C)C)NC(=O)[C@H](CCCNC(=N)N)NC(=O)[C@@H]2CCCN2C(=O)[C@H](CCCNC(=N)N)NC(=O)[C@@H]2CCC(=O)N2)CSSC[C@@H](C(=O)N[C@@H](Cc2ccccc2)C(=O)O)NC1=O
B12: Example 41: pE-R-P-R-(4-PhF)-C-H-K-G-P-Nle-C-F-OH (peptide)
peptide: [pGlu]RPR[Bip]CHKGP[Nle]CF-OH
modifications: disulfide 6-12
SMILES: CCCC[C@@H]1NC(=O)[C@@H]2CCCN2C(=O)CNC(=O)[C@H](CCCCN)NC(=O)[C@H](Cc2c[nH]cn2)NC(=O)[C@@H](NC(=O)[C@H](Cc2ccc(-c3ccccc3)cc2)NC(=O)[C@H](CCCNC(=N)N)NC(=O)[C@@H]2CCCN2C(=O)[C@H](CCCNC(=N)N)NC(=O)[C@@H]2CCC(=O)N2)CSSC[C@@H](C(=O)N[C@@H](Cc2ccccc2)C(=O)O)NC1=O
B13: Example 39: pE-R-P-R-L-C-H-K-D-P-Nle-C-F-OH (peptide)
peptide: [pGlu]RPRLCHKDP[Nle]CF-OH
modifications: disulfide 6-12
SMILES: CCCC[C@@H]1NC(=O)[C@@H]2CCCN2C(=O)[C@H](CC(=O)O)NC(=O)[C@H](CCCCN)NC(=O)[C@H](Cc2c[nH]cn2)NC(=O)[C@@H](NC(=O)[C@H](CC(C)C)NC(=O)[C@H](CCCNC(=N)N)NC(=O)[C@@H]2CCCN2C(=O)[C@H](CCCNC(=N)N)NC(=O)[C@@H]2CCC(=O)N2)CSSC[C@@H](C(=O)N[C@@H](Cc2ccccc2)C(=O)O)NC1=O
B14: Example 52: pE-R-P-R-L-hC-H-K-G-P-Nle-hC-F-OH (peptide)
peptide: [pGlu]RPRL[hCys]HKGP[Nle][hCys]F-OH
modifications: disulfide 6-12
SMILES: CCCC[C@@H]1NC(=O)[C@@H]2CCCN2C(=O)CNC(=O)[C@H](CCCCN)NC(=O)[C@H](Cc2c[nH]cn2)NC(=O)[C@@H](NC(=O)[C@H](CC(C)C)NC(=O)[C@H](CCCNC(=N)N)NC(=O)[C@@H]2CCCN2C(=O)[C@H](CCCNC(=N)N)NC(=O)[C@@H]2CCC(=O)N2)CCSSCC[C@@H](C(=O)N[C@@H](Cc2ccccc2)C(=O)O)NC1=O
B15: Example 43: pE-R-P-R-L-C-E-K-G-P-Nle-C-F-OH (peptide)
peptide: [pGlu]RPRLCEKGP[Nle]CF-OH
modifications: disulfide 6-12
SMILES: CCCC[C@@H]1NC(=O)[C@@H]2CCCN2C(=O)CNC(=O)[C@H](CCCCN)NC(=O)[C@H](CCC(=O)O)NC(=O)[C@@H](NC(=O)[C@H](CC(C)C)NC(=O)[C@H](CCCNC(=N)N)NC(=O)[C@@H]2CCCN2C(=O)[C@H](CCCNC(=N)N)NC(=O)[C@@H]2CCC(=O)N2)CSSC[C@@H](C(=O)N[C@@H](Cc2ccccc2)C(=O)O)NC1=O

The target of this assay is T1, human APJ receptor (hAPJ). Briefly: cell-based or functional assay.
Take B1: the “hAPJ Ca2+ Flux EC50” value came out at 1.09 nM. The same measure for B2: 2.41 nM; for B3: 34.2 nM; for B4: 6.55 nM. To B5 belongs 7.99 nM. As for B6, the “hAPJ Ca2+ Flux EC50” value came out at 5.94 nM. To B7 belongs 1.92 nM; to B8, 4.1 nM; to B9, 6.7 nM.

As to [pGlu]RPRL[Dab]HFGP[Nle]D-Phenethylamine (lactam 6-12) [Example 4: pE-R-P-R-L-Dab-H-F-G-P-Nle-D-Phenethylamine], the “hAPJ Ca2+ Flux EC50” value turned out to be 747 nM. The same measure for B10: 92.8 nM; for B11: 1.07 nM; for B12: 6.91 nM.

Take B13: the “hAPJ Ca2+ Flux EC50” value is 8.2 nM. The same measure for B14: 53.9 nM. To [pGlu]RPRLKFKGP[Nle]F (lactam 6-C) [Example 5: pE-R-P-R-L-K-F-K-G-P-Nle-F] belongs 21.2 nM.

For B15, the “hAPJ Ca2+ Flux EC50” value came to 4.14 nM. The same measure for [pGlu]RPRLCHKG[Pipecolic acid][Nle]CF-OH (disulfide 6-12) [Example 46: pE-R-P-R-L-C-H-K-G-(Pipecolic acid)-Nle-C-F-OH]: 3.87 nM.
